Numbering of substitutions follows the chain as printed. Names and notes keep the numbering of the source. Like-named read-outs stand apart in the source and are kept apart here.
Assays:
[1] = target: PD-L1 on CHOK1-PDL1 cells (Promega PD-1/PD-L1 Blockade Bioassay) (UniProt Q9NZQ7 19-290, limits assumed); assay: cell-based or functional assay
[2] = target: T1, human PD-L1 overexpressed on CHO cells (CHO-PDL1) (human, UniProt Q9NZQ7 19-290); assay: flow cytometry (FACS) on CHO-PDL1 cells
T1 construct: whole, on cells; also called CHO cells overexpressing human PD-L1

[3] = target: T2, human PD-L1 (purchased from Acrobiosystems) (human, UniProt Q9NZQ7 19-238); assay: biological optical interferometry (ForteBio), antibody on sensor, antigen in solution
T2 construct: also called hPD-L1
Experimental: (§1) SD buffer, antibodies, and antigens (including human PD-L1, mouse PD-L1 and Macaca fascicularis PD-L1, all purchased from Acrobiosystems) each of 100 μL were added to 96-well black polystyrene half area microplates (Greiner, 675076). The sensors were arranged according to the positions of the samples. The instrument settings were as follows: the operation procedures were Baseline, Loading ˜1 nm, Baseline, Association, and Dissociation. The run time of each procedure was dependent on the rates of association and dissociation. The rotation speed was 400 rpm, and the temperature was 30° C. The KD values were analyzed by ForteBio analysis software.
The equilibrium dissociation constant (KD) binding of the humanized antibodies of different Fc subtypes of the invention to human PD-L1 was determined by ForteBio. The ForteBio affinity assay was shown in Example 2.

[4] = target: T2, human PD-L1 (purchased from …); assay: as above; remark: listed apart in the source
Experimental: The equilibrium dissociation constant (KD) for binding of the antibody of the invention to human PD-L1 was determined by biological optical interferometry (ForteBio). A ForteBio affinity assay of prior art was performed (Estep, P., et al, High throughput solution based measurement of antibody-antigen affinity and epitope binning. MAbs, 2013.5(2):270-8).
as §1

[5] = target: T1, human PD-L1 overexpressed on CHO cells …; assay: flow cytometry (FACS) on CHO-PDL1 cells; the table gives no unit, the axis is Con(nM); the text gives this value to 4-26.6
Experimental: (§2) CHO-PDL1 cells were counted, diluted to 1×10⁶ cells/mL, and added to each well of a U-shaped bottom 96-well plates at 100 μL/well. The suspension was centrifuged at 400 g for 5 min, and the supernatant was discarded. […] The cells were resuspended to a volume of 100 μL/well, and then left on ice for 30 min. The suspension was centrifuged at 400 g for 5 min, and the supernatant was discarded. The cells were washed once with PBS. The mixture was centrifuged at 400 g for 5 min, and the supernatant was discarded. 100 μL of FITC-labeled secondary antibody for anti-mouse-Fab (Jackson Immuno Research) (diluted in PBS in 1:500) was added per well, and 100 μL of FITC-labeled secondary antibody for anti-human-Fab (Jackson Immuno Research) was added to the cells to which the positive control antibody was added. The cells were incubated for 30 min on ice in the dark. The cells were centrifuged at 400 g for 5 min with the supernatant being discarded, and were washed once with a PBS. The cells were resuspended with 100 μL of 1×PBS, and detected by FACS.

[6] = target: T1, human PD-L1 overexpressed on CHO cells …; assay: flow cytometry (FACS) on CHO-PDL1 cells; the table gives no unit, the axis is Con(nM); the text gives this value to 4-79.2
Experimental: as §2

[7] = target: T3, human LAG-3-His (human, UniProt P18627 23-450); assay: biological optical interferometry (ForteBio), antibody on AHQ tip, human LAG-3-His 100 nM in solution, univalent, 1:1 model
T3 construct: also called hLAG-3; human LAG-3 antigen (ArcoBiosystems); not shown: His tag
T3 sequence (looked up): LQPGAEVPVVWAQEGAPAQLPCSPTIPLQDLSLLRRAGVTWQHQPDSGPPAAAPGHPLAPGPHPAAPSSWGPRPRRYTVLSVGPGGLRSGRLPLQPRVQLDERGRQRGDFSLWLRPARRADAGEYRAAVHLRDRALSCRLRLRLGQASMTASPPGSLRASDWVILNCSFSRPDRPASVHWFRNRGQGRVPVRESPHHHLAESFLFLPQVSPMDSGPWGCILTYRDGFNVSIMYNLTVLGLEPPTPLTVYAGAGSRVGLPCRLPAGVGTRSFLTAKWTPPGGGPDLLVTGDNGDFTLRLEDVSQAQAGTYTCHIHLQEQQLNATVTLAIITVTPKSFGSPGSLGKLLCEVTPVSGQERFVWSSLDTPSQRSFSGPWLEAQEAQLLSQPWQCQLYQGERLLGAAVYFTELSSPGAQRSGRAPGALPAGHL
Experimental: The equilibrium dissociation constant (KD) for binding of ADI31853 to human LAG-3 (hLAG-3) was measured by biological optical interferometry (ForteBio). A ForteBio affinity assay of prior art was performed (Estep, P., et al, High throughput solution based measurement of antibody-antigen affinity and epitope binning. MAbs, 2013.5(2):270-8). Briefly, the sensor was equilibrated offline in assay buffer for 30 minutes, and on-line detection was then conducted for 60 seconds to establish a baseline. The purified antibody obtained as described above was loaded on-line onto an AHQ sensor (ForteBio) for ForteBio affinity assay. The sensor with the loaded antibody was then exposed to 100 nM of a human LAG-3 antigen (ArcoBiosystems) for 5 minutes before transferring the sensor to the assay buffer for dissociation for 5 minutes for dissociation rate measurement. Kinetic analysis was performed using a 1:1 binding model.

T2 sequence (Q9NZQ7 19-238 limits assumed): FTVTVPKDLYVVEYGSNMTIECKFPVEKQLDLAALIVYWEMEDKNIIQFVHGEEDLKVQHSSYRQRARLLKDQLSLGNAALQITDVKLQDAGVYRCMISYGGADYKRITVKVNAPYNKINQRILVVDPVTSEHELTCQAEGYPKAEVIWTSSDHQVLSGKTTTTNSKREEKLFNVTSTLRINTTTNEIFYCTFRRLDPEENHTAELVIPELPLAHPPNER
Sequence of PD-L1 on CHOK1-PDL1 cells (Promega PD-1/PD-L1 Blockade Bioassay) (Q9NZQ7 19-290 limits assumed): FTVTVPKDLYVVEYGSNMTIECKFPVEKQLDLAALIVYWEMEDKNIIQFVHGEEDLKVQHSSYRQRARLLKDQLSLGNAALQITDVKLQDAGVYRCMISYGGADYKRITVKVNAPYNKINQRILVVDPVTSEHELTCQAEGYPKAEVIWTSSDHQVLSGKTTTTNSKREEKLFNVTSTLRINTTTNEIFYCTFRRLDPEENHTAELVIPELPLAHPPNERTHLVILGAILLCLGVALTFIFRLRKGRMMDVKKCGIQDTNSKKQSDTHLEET
T1 sequence (Q9NZQ7 19-290): as the sequence (Q9NZQ7 19-290 limits assumed) above

B1: HZ4485-IgG1N297A (antibody, V domains shown)
VH: QVQLVQSGAEVAKPGASVKVSCKASGYTFTTYTMHWVRQRPGQGLEWIGNINPNSDYAIYAQKFQGRATMTADKSTNTAYMELSSLRSEDSAVYYCAKQSFDYWGQGTLVTVSS
VL: DIVLTQSPASLAVSPGQRATITCRASESVEFYGTSLLQWYQQKPGQPPKLLIYAASNVESGVPARFSGSGSGTDFTLTINPVEADDTANYYCHQGRKVPYTFGQGTKLEIKR
notes: Humanized form of 4-48.5, human IgG1 with N297A, kappa
In the case of B1, the “EC50 of the NFAT luciferase reporter signal (blockade of PD-1 on Jurkat-PD1 cells binding PD-L1 on CHOK1-PDL1 cells)” value [1] is reported as 0.683 nM, the EC50 [2] is reported as 1.56 nM and the Kd [3] is reported as 3.17 nM.

B2: 4-48.5 (antibody, human IgG1, kappa, N297A, V domains shown)
VH: EVQLQQSGAELARPGASVKMSCKASGYTFTTYTMHWVKQRPGQGLEWIGNINPNSDYAIYNQKFKDKATLTADKSSNTAYMQLSGLTSEDSAVYYCAKQSFDYWGQGTTLTVSS
VL: B1 VL with P15L, T22S, T76S, T78N, N80H, A84V, T87V, N89L, Y91F, Q104G
notes: Same remark on anti-mouse detection reagents as for 3-266.1; also called chimeric antibody 4-48.5
With B2 the EC50 [2] was 2 nM and the Kd [4] was 1.23 nM.

B3: 3-266.1 (antibody, human IgG1, kappa, N297A, V domains shown)
VH: EVQLQQSVAELVKPGASVKLSCTASGFNIEDTYIHWVKQRPEQGLEWIGRIDPANDDTKYDPKFQGKATITADTSSNTAYLQLSSLTPEDTAVYYCGRGLGRWFAYWGQGTLVTVSA
VL: SIVMTQSHKFMSTSIGDRVNISCKASQDVINAVAWCQQKPGQSPKLLIYSASNRYTGVPDRFTGSGSGTDFTFTISSVQAEDLAVYYCQQHYSPPLTFGGGTKLELKR
notes: also called chimeric antibody 3-266.1
B3 was tested, and the EC50 [2] was 2.14 nM and the Kd [4] was 0.98 nM.

B4: 4-79.2 (antibody, human IgG1, kappa, N297A, V domains shown)
VH: EVQLQQSGPSLVKPSQTLSLTCSVTGDSITSGYWNWIREFPGNKLEYLGYISYTGSTYYNPSLKSRISITRDTSKNQYSLQLNSVTTEDTATYYCAKAPRWLSAMDYWGQGTSVTVSS
VL: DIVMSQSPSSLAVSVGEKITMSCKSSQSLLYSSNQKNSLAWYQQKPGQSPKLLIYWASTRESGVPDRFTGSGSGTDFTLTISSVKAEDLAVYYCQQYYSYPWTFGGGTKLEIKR
notes: Same remark on anti-mouse detection reagents as for 3-266.1; also called chimeric antibody 4-79.2
With B4 the EC50 [2] was 2.6 nM, the Kd [4] was 7.56 nM and the EC50 [5] was 1.99 nM.

B5: 4-26.6 (antibody, human IgG1, kappa, N297A, V domains shown)
VH: QVQLKESGPSLVKPSQTLSLTCSVTGDSITSGYWNWIRKFPGNKLEYMGYISYSGSTYHNPSLKSRISITRDTSKNQFYLQLNSVTKEDTATYYCARGDLWPPWFAYWGQGTLVTVSA
VL: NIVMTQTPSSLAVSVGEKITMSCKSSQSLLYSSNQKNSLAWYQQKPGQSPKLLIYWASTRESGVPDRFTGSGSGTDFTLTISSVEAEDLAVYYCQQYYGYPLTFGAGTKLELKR
notes: Same remark on anti-mouse detection reagents as for 3-266.1; also called chimeric antibody 4-26.6
B5 gave an EC50 [2] of 1.99 nM, a Kd [4] of 3.85 nM and an EC50 [6] of 2.6 nM.

B6: ADI-31853 (antibody, human IgG4 S228P, kappa, F234A L235A, V domains shown)
VH: QLQLQESGPGLVKPSETLSLTCTVSGGSIYSESYYWGWIRQPPGKGLEWIGSIVYSGYTYYNPSLKSRVTISVDTSKNQFSLKLSSVTAADTAVYYCARVRTWDAAFDIWGQGTMVTVSS
VL: DIQMTQSPSSLSASVGDRVTITCQASQDISNYLNWYQQKPGKAPKLLIYDASNLETGVPSRFSGSGSGTDFTFTISSLQPEDIATYYCQQVLELPPWTFGGGTKVEIKR
notes: also called anti-human-LAG-3 antibody
With B6 the Kd [7] was 0.622 nM, the koff [7] was 0.0002 s⁻¹ and the kon [7] was 322000 M⁻¹ s⁻¹.

B7: HZ3266-IgG1N297A (antibody)
heavy: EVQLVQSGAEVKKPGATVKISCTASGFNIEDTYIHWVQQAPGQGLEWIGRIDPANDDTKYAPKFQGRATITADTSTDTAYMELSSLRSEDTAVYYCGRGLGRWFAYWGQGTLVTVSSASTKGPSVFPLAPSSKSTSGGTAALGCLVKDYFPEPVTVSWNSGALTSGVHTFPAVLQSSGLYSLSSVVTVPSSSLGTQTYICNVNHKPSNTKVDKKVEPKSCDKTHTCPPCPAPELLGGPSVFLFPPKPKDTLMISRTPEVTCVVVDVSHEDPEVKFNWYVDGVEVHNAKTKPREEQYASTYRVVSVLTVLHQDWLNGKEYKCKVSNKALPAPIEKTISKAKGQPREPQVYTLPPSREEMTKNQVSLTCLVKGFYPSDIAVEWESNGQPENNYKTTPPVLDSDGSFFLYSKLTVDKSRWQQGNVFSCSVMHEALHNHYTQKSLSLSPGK
light: GIVMTQSPDSLAVSLGERATINCKASQDVINAVAWYQQKPGQSPKLLIYSASNRYTGVPDRFSGSGSGTDFTLTISSLQAEDLAVYYCQQHYSPPLTFGGGTKVEIKRTVAAPSVFIFPPSDEQLKSGTASVVCLLNNFYPREAKVQWKVDNALQSGNSQESVTEQDSKDSTYSLSSTLTLSKADYEKHKVYACEVTHQGLSSPVTKSFNRGEC
notes: Humanized form of 3-266.1, human IgG1 with N297A, kappa
In the case of B7, the “EC50 of the NFAT luciferase reporter signal (blockade of PD-1 on Jurkat-PD1 cells binding PD-L1 on CHOK1-PDL1 cells)” value [1] is reported as 0.967 nM, the EC50 [2] is reported as 1.78 nM and the Kd [3] is reported as 0.724 nM.

B8: HZ3266-IgG4PAAK (antibody)
heavy: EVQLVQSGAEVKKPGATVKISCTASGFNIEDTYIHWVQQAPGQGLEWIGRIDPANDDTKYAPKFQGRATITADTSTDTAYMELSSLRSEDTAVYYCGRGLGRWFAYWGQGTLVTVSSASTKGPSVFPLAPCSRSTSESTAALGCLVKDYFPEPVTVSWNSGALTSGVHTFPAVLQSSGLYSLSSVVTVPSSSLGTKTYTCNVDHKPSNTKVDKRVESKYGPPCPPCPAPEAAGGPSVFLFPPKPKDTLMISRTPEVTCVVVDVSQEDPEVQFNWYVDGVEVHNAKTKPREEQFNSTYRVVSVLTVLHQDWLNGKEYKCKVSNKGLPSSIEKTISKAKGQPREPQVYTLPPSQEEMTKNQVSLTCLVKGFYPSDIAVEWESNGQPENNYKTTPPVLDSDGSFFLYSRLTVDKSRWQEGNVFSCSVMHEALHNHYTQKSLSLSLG
light: B7 light
notes: Humanized form of 3-266.1, mutated human IgG4 constant region, kappa; also called HZ3266-G4PAAK; HZ3266-IgG4PAK
B8 showed an EC50 [2] of 1.86 nM and a Kd [3] of 1.32 nM.

B9: HZ3266-IgG1 (antibody)
heavy: not shown
light: B7 light
notes: Humanized form of 3-266.1, human IgG1, kappa
B9 was tested, and the “EC50 of the NFAT luciferase reporter signal (blockade of PD-1 on Jurkat-PD1 cells binding PD-L1 on CHOK1-PDL1 cells)” value [1] was 0.623 nM, the EC50 [2] was 1.81 nM and the Kd [3] was 0.935 nM.

— patent US20200332009A1 (Innovent, published 2020)
